US20240132578A1

How the values were obtained:
Test in all cases: cell-based or functional assay
[1] = molecular target: HIV-1 Env of isolate MG RM-A-006 (pseudovirus) (HIV-1)
[2] = molecular target: HIV-1 Env of pseudovirus isolate JR-FL (clade B) (HIV-1)
[3] = molecular target: HIV-1 Env of isolate VLGCA1 (pseudovirus) (HIV-1)
[4] = molecular target: HIV-1 Env of isolate MGRM-G-027 (subtype G) (HIV-1)
[5] = molecular target: HIV-1 Env of isolate MG RM-A-014 (pseudovirus) (HIV-1)
[6] = molecular target: HIV-1 Env of pseudovirus isolate MGRM-C-013 (clade C) (HIV-1)
[7] = molecular target: HIV-1 Env of isolate MGRM-Chronic-B-002 (HIV-1)
[8] = molecular target: HIV-1 Env of isolate MGRM-C-002 (HIV-1)
[9] = molecular target: HIV-1 Env of isolate 92TH021 (subtype AE) (HIV-1)
[10] = molecular target: HIV-1 Env of isolate 92WR009 (pseudovirus) (HIV-1)
[11] = molecular target: HIV-1 Env of isolate MGRM-F1-012 (HIV-1)
[12] = molecular target: HIV-1 Env of isolate MGRM-D-003 (pseudovirus) (HIV-1)
[13] = molecular target: HIV-1 JR-CSF Env E466A (HIV-1 (isolate JR-CSF)) (UniProt P20871)
[14] = molecular target: HIV-1 Env of isolate MGRM-AG-008 (subtype AG) (HIV-1)
[15] = molecular target: HIV-1 JR-CSF Env I414A (HIV-1 (isolate JR-CSF)) (UniProt P20871)
[16] = molecular target: HIV-1 Env of isolate MGRM-AE-007 (subtype AE) (HIV-1)
[17] = molecular target: HIV-1 Env of isolate 98CN009 (pseudovirus) (HIV-1)
[18] = molecular target: HIV-1 Env of isolate MGRM-AG-003 (subtype AG) (HIV-1)
[19] = molecular target: HIV-1 Env of isolate MGRM-AG-005 (pseudovirus) (HIV-1)
[20] = molecular target: HIV-1 92TH021 Env (HIV-1)
[21] = molecular target: HIV-1 envelope glycoprotein (Env) of isolate MG RM-A-005, subtype A (HIV-1)
[22] = molecular target: HIV-1 MGRM-D-001 envelope protein (Env) on pseudovirus (HIV-1)
[23] = molecular target: HIV-1 envelope glycoprotein (Env) of isolate 92TH021, subtype AE (HIV-1)
[24] = molecular target: HIV-1 envelope glycoprotein (Env) of isolate MGRM-AE-003, subtype AE (HIV-1)
[25] = molecular target: HIV-1 envelope glycoprotein (Env) of isolate MG RM-A-013, subtype A (HIV-1)
[26] = molecular target: HIV-1 envelope glycoprotein (Env) of isolate TRJO4551.58, on pseudovirus (HIV-1)
[27] = molecular target: HIV-1 envelope glycoprotein (Env) of isolate MG RM-A-008, subtype A (HIV-1)
[28] = molecular target: HIV-1 envelope glycoprotein (Env) of isolate 92UG031, subtype A (HIV-1)

Chain of 4995_P16 (PGT-145) (antibody) (VH): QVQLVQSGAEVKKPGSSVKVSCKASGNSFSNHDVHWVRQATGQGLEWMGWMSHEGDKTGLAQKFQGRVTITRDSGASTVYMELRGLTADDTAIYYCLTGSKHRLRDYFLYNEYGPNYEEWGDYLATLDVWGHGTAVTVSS
Chain of 4995_P16 (PGT-145) (antibody) (VL): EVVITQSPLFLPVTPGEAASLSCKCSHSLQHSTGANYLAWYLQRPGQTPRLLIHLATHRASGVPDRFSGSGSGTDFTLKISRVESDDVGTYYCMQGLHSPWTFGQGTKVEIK

Substance	IC50, pseudovirus neutralization [6] [µg/mL]	IC50 (µg/mL), pseudovirus neutralization [7] [µg/mL]	IC50 (µg/mL), pseudovirus neutralization [8] [µg/mL]	IC50, pseudovirus neutralization [9] [µg/mL]	IC50 (µg/mL), pseudovirus neutralization [10] [µg/mL]	IC50 (µg/mL), pseudovirus neutralization [11] [µg/mL]	IC50 (µg/mL), pseudovirus neutralization [12] [µg/mL]	Fold IC50 increase relative to wild-type (pseudovirus neutralization) [13] [fold]	IC50, pseudovirus neutralization [14] [µg/mL]	Fold IC50 increase relative to wild-type (pseudovirus neutralization) [15] [fold]	IC50, pseudovirus neutralization [16] [µg/mL]	IC50 (µg/mL), pseudovirus neutralization [17] [µg/mL]	IC50, pseudovirus neutralization [18] [µg/mL]	IC50 (µg/mL), pseudovirus neutralization [19] [µg/mL]	IC50, pseudovirus neutralization [21] [µg/mL]	IC50 (ug/mL), pseudovirus neutralization [22] [µg/mL]	IC50, pseudovirus neutralization [23] [µg/mL]	IC50, pseudovirus neutralization [24] [µg/mL]	IC50, pseudovirus neutralization [25] [µg/mL]	IC50, pseudovirus neutralization [26] [µg/mL]	also measured
4995_P16 (PGT-145) (antibody)	–	–	–	–	–	–	–	–	–	–	–	–	–	–	–	–	–	–	–	–	IC50 (µg/mL), single-round pseudovirus neutralization [1]: > 50 µg/mL; IC50, pseudovirus neutralization [2]: 30.4 µg/mL; IC50 (µg/mL), single-round pseudovirus neutralization [3]: 8.01 µg/mL; IC50 (µg/mL), pseudovirus neutralization [4]: 0.433 µg/mL; IC50 (µg/mL), single-round pseudovirus neutralization [5]: 1.36 µg/mL
5114_A19 (PGT-128) (antibody)	> 50	0.036	0.019	0.01	0.812	0.007	0.019	0.6	0.668	1.4	> 50	0.025	34.8	–	–	–	–	–	–	–	–
5123_A06 (PGT-125) (antibody)	–	–	–	–	–	–	–	1.6	–	0.3	–	–	–	> 50	> 50	2.31	0.006	0.092	0.014	0.019	IC50, pseudovirus neutralization [20]: 0.0066 µg/mL; IC50, pseudovirus neutralization [27]: > 50 µg/mL; IC50, pseudovirus neutralization [28]: > 50 µg/mL
5136_H01 (PGT-131) (antibody)	> 50	> 50	> 50	0.014	3.12	> 50	19.6	1.7	> 50	1	0.026	4.05	2.92	–	–	–	–	–	–	–	–
5141_B17 (PGT-126) (antibody)	–	–	–	–	–	–	–	1.4	–	0.4	–	–	–	1.21	> 50	0.0639	0.197	> 50	0.006	0.025	IC50, pseudovirus neutralization [20]: 0.115 µg/mL; IC50, pseudovirus neutralization [27]: > 50 µg/mL; IC50, pseudovirus neutralization [28]: > 50 µg/mL
5145_B14 (PGT-127) (antibody)	–	–	–	–	–	–	–	0.9	–	2.2	–	–	–	> 50	> 50	–	> 50	> 50	0.029	0.063	IC50, pseudovirus neutralization [27]: > 50 µg/mL; IC50, pseudovirus neutralization [28]: > 50 µg/mL
5329_C19 (PGT-136) (antibody)	> 50	> 50	> 50	> 50	> 50	> 50	> 50	–	> 50	–	> 50	0.428	> 50	–	–	> 10	–	–	–	–	–
5345_I01 (PGT-137) (antibody)	> 50	> 50	8.03	> 50	> 50	> 50	> 50	–	> 50	–	> 50	5.06	> 50	–	–	–	–	–	–	–	–
PGV04 (antibody)	–	–	–	–	–	–	–	–	–	–	–	–	–	0.027	–	–	–	–	–	–	IC50 (µg/mL), pseudovirus neutralization [3]: 0.024 µg/mL; IC50 (µg/mL), pseudovirus neutralization [4]: 0.125 µg/mL
